From US20230030950A1 (UNIVERSITY OF QUEENSLAND, published 2023)

Target: T1, Aβ1-42 fibrils (UniProt P05067 672-713)
T1 construct: domain: Aβ1-42; Aggregated (fibrillar) form coated on the ELISA plate; also called fibrillar amyloid-β42; fibrillar Aβ42
Assay: direct-binding ELISA; plate coated with Aβ1-42 fibrils, serial dilutions of antibody, anti-mouse HRP detection
Experimental: A131-42 fibrils were generated by incubating 0.1 mM A131-42 (JPT Peptide Technologies, Germany) in 10 mM HCl for 3 d at 37° C. A MaxiSorp ELISA plate was coated with […] Aβ₁₋₄₂ fibrils in 0.1M sodium bicarbonate buffer and then blocked with 1% bovine serum albumin.

T1 sequence (P05067 672-713 limits assumed): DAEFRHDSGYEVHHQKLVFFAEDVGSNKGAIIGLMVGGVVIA

EC50: 1.18 nM
B1: 6E10 antibody (antibody, V domains shown)
VH: EVQLQQSGAELVKPGASVKLCTASGFNIKDTYIHWVKQRPEQGLEWIGRFDPVNVNTRYDSRFRGKATITSDASSNTAYLHLNSLTSEDTAVYYCSRSYYNGRRRFTYWGQGTLVTVSA
VL: DIVMTQSPSSLTVTAGEKVALTCKASQSLLSSGNQKNYLTWYQQKPGQPPKLLIYWASIRESGVPDRFTGSGSGTFFTLTISSVQAEDLAVYYCQNDYNYPFTFGSGTKLEIK
